Results on 8 molecules are retold here after patent publication EP4386000 (dated 2024).

The target in one assay is T1, mouse CD25-his (mouse, UniProt P01590).
T1 chain: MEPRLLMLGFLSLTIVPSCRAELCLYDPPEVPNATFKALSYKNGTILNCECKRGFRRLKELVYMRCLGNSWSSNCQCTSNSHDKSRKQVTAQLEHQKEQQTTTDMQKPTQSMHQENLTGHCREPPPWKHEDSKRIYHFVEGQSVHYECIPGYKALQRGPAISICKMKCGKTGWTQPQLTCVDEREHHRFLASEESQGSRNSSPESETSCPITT
The experiment in a line: ELISA. (An ELISA detects its analyte on a solid surface through an enzyme-linked reagent.)

Assay [1] deals with T2, human CD25-his (human, UniProt P01589).
T2 chain: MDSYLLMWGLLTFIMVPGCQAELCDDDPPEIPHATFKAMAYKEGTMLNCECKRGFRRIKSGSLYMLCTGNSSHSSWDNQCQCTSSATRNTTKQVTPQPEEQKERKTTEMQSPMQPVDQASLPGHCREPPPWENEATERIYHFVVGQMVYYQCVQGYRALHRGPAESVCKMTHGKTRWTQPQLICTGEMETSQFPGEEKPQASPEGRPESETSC
Nature of the assay: ELISA.

The target in assay [2] is T2, human CD25-his. Nature of the assay: SPR, 25C.
The target of assay [3] is T3, human CD25 on CHO-K1 cells (human, UniProt P01589).
T3 chain: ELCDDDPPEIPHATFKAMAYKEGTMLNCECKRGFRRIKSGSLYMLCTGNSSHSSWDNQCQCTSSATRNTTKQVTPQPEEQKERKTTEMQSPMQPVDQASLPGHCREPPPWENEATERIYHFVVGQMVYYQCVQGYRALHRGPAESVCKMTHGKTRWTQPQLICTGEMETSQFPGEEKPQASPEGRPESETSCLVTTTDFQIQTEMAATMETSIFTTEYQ
The experiment in a line: FACS. Background: In flow cytometry, cells or beads pass a laser one at a time.

Substitutions are numbered along the chain they refer to.

B1: 2047-3H8L2 (2047-3ix) (antibody, V domains shown)
VH: QVQLKQSGAELVKPGASVKMSCKTSGYTFTDYVISWVKQRTGQGLEWIGEIYPGSGSTYYNEKFKGKATLTADISSNTAYMQLSSLTSEDSAVYFCASINFDYWGHGTTLTVSS
VL: DIVMTQSPATLSVTPGDRVSLSCRASQSISDYLHWYQQKSHESPRLLIKYASQSISGIPSRFSGSGSGSDFTLSINSVEPEDVGVYYCQNGHSFPYTFGGGTKLEIK
For B1, the binding result with mouse CD25-his is listed as “no binding”.

B2: 2046-24H2L1 (2046-24ix) (antibody, V domains shown)
VH: DVQLQESGPGLVKPSQSLSLTCTVTGYSITSDYAWNWIRQFPGNKLEWMGYISYGGTTIYNPSLKSRISITRDTSKNQFFLQLNSVTTEDTATYYCARWLLQNYYAMDYWGQGTSVTVSS
VL: DVVMTQTPLSLPVSLGDQASISCRSSQSLVHSNGNTYLHWYLQKPGQSPKVLIYKVSNRFSGVPDRFSGSGSGTDFTLKISRVEAEDLGVYFCSQNTHVPLTFGAGTKLELK
For B2, in the assay with mouse CD25-his, the binding result is “no binding”.

B3: 2046-2H1L1 (2046-2ix) (antibody, V domains shown)
VH: B2 VH with Q40H, S53T, G55S, T57S, I59V, Q78H, N103I
VL: B2 VL with V51L, N96S
For B3, the binding result with mouse CD25-his is reported as “no binding”.

B4: 2046-111H2L1 (2046-111ix) (antibody, V domains shown)
VH: B2 VH with Y27H, G55S, T57S
VL: B2 VL with Q43R, V51L, N96S
For B4, the binding result with mouse CD25-his was “no binding”.

B5: 2046-18H1L1 (2046-18ix) (antibody, V domains shown)
VH: B2 VH with G55S, T57I, N103I
VL: B2 VL with R24S, Q43H, V51L, N96S
B5: the binding result in the assay with mouse CD25-his is “no binding”.

B6: 2046-61H1L2 (2046-61ix) (antibody)
chain 1: B2 VH with G55S, T57G
chain 2: B2 VL with Y41N, V51L, N96S, G104S
B6: the binding result with mouse CD25-his is recorded as “no binding”. The figures for the EC50 (with human CD25-his [1]; in assay [3]) were 0.144 µg/mL and 0.00114 µg/mL, respectively. For the same molecule, the Kd with human CD25-his [2] worked out at 9.44 nM.

B7: 2046-36H2L1 (2046-36ix) (antibody, V domains shown)
VH: QIQLVQSGPELKKPGETVRISCKASGYTFTTAGMQWVQKMPGKGLKWIGWINTHSGVPKYAEDFKGRFAFSLETSASTAYLQISNLKNEDTATYFCASDYAFGYWGQGTLVTVSA
VL: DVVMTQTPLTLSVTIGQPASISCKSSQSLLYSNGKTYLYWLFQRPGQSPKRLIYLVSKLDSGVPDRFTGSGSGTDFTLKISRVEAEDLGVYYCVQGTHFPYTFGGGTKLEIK
As to B7, the binding result with mouse CD25-his is “no binding”.

B8: 2047-10H1L2 (2047-10ix) (antibody, V domains shown)
VH: QVQLQQSGPELVRPGVSVKISCKGSGYTFTDYAMHWVKQSHAKSLEWIGVISTYNGNTNYNQKFKGKATMTVDKSSSTAYMELARLTSEDSAIYYCARSYGNYPFDYWGQGTTLTVSS
VL: DIKMTQSPSSMYASLGERVTITCKASQDINSYLSWFQQKPGKSPKTLIYRANRLVDGVPSRFSGSGSGQDYSLTISSLEYEDMGIYYCLQYDEFPYTFGGGTKLEIK
For the molecule B8, the binding result in the assay with mouse CD25-his is on record as “no binding”.

As usually defined, the EC50 is the concentration needed to bring the measured effect to its halfway point. A lower EC50 goes with a more potent agent. A word on the Kd: it is the equilibrium constant for the complex coming apart. Read a high Kd as weaker binding.
